Source: the supplement of paper PMC12458215
± gives the uncertainty stated by the source.

System: HEK293T
Experiment: plasma membrane surface immunostaining intensity (anti-HA, deep receptor scanning) (arbitrary fluorescence units); higher = higher plasma membrane expression

## MASTSNVTELIFTGLFQDPAVQSVCFVVFLPVYLATVVGNGLIVLTVSISKSLDSPMYFFLSCLSLVEISYSSTIAPKFIIDLLAKIKTISLEGCLTQIFFFHFFGVAEILLIVVMAYDCYVAICKPLHYMNIISRQLCHLLVAGSWLGGFCHSIIQILVIIQLPFCGPNVIDHYFCDLQPLFKLACTDTFMEGVIVLANSGLFSVFSFLILVSSYIVILVNLRNHSAEGRHKALSTCASHITVVILFFGPAIFLYMRPSSTFTEDKLVAVFYTVITPMLNPIIYTLRNAEVKIAIRRLWSKKENPGRE [OR4B1]
GPCR class: A (Olfactory)
  plasma membrane surface immunostaining intensity: 131 ± 38

## MERINHTSSVSEFILLGLSSRPEDQKTLFVLFLIVYLVTITGNLLIILAIRFNPHLQTPMYFFLSFLSLTDICFTTSVVPKMLMNFLSEKKTISYAGCLTQMYFLYALGNSDSCLLAVMAFDRYVAVCDPFHYVTTMSHHHCVLLVAFSCSFPHLHSLLHTLLLNRLTFCDSNVIHHFLCDLSPVLKLSCSSIFVNEIVQMTEAPIVLVTRFLCIAFSYIRILTTVLKIPSTSGKRKAFSTCGFYLTVVTLFYGSIFCVYLQPPSTYAVKDHVATIVYTVLSSMLNPFIYSLRNKDLKQGLRKLMSKRS [OR1L8]
GPCR class: A (Olfactory)
  plasma membrane surface immunostaining intensity: 177 ± 72

## MDPEETSVYLDYYYATSPNSDIRETHSHVPYTSVFLPVFYTAVFLTGVLGNLVLMGALHFKPGSRRLIDIFIINLAASDFIFLVTLPLWVDKEASLGLWRTGSFLCKGSSYMISVNMHCSVLLLTCMSVDRYLAIVWPVVSRKFRRTDCAYVVCASIWFISCLLGLPTLLSRELTLIDDKPYCAEKKATPIKLIWSLVALIFTFFVPLLSIVTCYCCIARKLCAHYQQSGKHNKKLKKSIKIIFIVVAAFLVSWLPFNTFKFLAIVSGLRQEHYLPSAILQLGMEVSGPLAFANSCVNPFIYYIFDSYIRRAIVHCLCPCLKNYDFGSSTETSDSHLTKALSTFIHAEDFARRRKRSVSL [GPR15]
GPCR class: A
  plasma membrane surface immunostaining intensity: 342 ± 19

## MVLEVSDHQVLNDAEVAALLENFSSSYDYGENESDSCCTSPPCPQDFSLNFDRAFLPALYSLLFLLGLLGNGAVAAVLLSRRTALSSTDTFLLHLAVADTLLVLTLPLWAVDAAVQWVFGSGLCKVAGALFNINFYAGALLLACISFDRYLNIVHATQLYRRGPPARVTLTCLAVWGLCLLFALPDFIFLSAHHDERLNATHCQYNFPQVGRTALRVLQLVAGFLLPLLVMAYCYAHILAVLLVSRGQRRLRAMRLVVVVVVAFALCWTPYHLVVLVDILMDLGALARNCGRESRVDVAKSVTSGLGYMHCCLNPLLYAFVGVKFRERMWMLLLRLGCPNQRGLQRQPSSSRRDSSWSETSEASYSGL [CXCR3]
GPCR class: A
  plasma membrane surface immunostaining intensity: 530 ± 49

## MQPYTKNWTQVTEFVMMGFAGIHEAHLLFFILFLTMYLFTLVENLAIILVVGLDHRLRRPMYFFLTHLSCLEIWYTSVTVPKMLAGFIGVDGGKNISYADCLSQLFIFTFLGATECFLLAAMAYDRYVAICMPLHYGAFVSWGTCIRLAAACWLVGFLTPILPIYLLSQLTFYGPNVIDHFSCDASPLLALSCSDVTWKETVDFLVSLAVLLASSMVIAVSYGNIVWTLLHIRSAAERWKAFSTCAAHLTVVSLFYGTLFFMYVQTKVTSSINFNKVVSVFYSVVTPMLNPLIYSLRNKEVKGALGRVFSLNFWKGQ [OR6Q1]
GPCR class: A (Olfactory)
  plasma membrane surface immunostaining intensity: 392 ± 120

## MRTLLPPALLTCWLLAPVNSIHPECRFHLEIQEEETKCAELLRSQTEKHKACSGVWDNITCWRPANVGETVTVPCPKVFSNFYSKAGNISKNCTSDGWSETFPDFVDACGYSDPEDESKITFYILVKAIYTLGYSVSLMSLATGSIILCLFRKLHCTRNYIHLNLFLSFILRAISVLVKDDVLYSSSGTLHCPDQPSSWVGCKLSLVFLQYCIMANFFWLLVEGLYLHTLLVAMLPPRRCFLAYLLIGWGLPTVCIGAWTAARLYLEDTGCWDTNDHSVPWWVIRIPILISIIVNFVLFISIIRILLQKLTSPDVGGNDQSQYKRLAKSTLLLIPLFGVHYMVFAVFPISISSKYQILFELCLGSFQGLVVAVLYCFLNSEVQCELKRKWRSRCPTPSASRDYRVCGSSFSRNGSEGALQFHRGSRAQSFLQTETSVI [VIPR2]
GPCR class: B
  plasma membrane surface immunostaining intensity: 6470 ± 74
